# According to patent publication US9783610B2:
# “And” between values parts separate entries of the source, which are not always exact repeats. Equal entries are not always repeated. Where two headings read alike, the source gives them in different places.
# T1: human TEM1 recombinant protein fused to GST (rhTEM1-GST) (human) (UniProt Q9HCU0)
# T1 sequence: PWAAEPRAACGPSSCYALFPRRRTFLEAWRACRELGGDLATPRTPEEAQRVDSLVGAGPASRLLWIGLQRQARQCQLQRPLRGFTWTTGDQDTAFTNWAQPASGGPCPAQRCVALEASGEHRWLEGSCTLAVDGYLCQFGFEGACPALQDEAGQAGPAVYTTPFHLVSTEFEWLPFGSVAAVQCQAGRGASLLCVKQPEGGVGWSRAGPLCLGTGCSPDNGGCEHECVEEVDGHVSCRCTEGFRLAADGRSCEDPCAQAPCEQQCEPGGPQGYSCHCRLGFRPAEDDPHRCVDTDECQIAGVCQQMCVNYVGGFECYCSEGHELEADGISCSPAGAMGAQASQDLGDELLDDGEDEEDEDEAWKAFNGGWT
# B1: scFv-78 (scFv)
# scFv: VQPVLTQPPSLSASPGASASLTCTLRSDINVGSYRISWYQQKPGSPPQYLLSYISDSDKQKGSGVPSRFSGSKDASANAGILLISGLQSEDEADYYCMIWHNSAGVFGGGTKLTVLGGGSSRSSSSGGGGSGGGGQVQLQESGGTLVQPGGSLRLSCEASGFTFSNYAMGWVRQTPGKGLEWLSAIRKSGTTTYYADSVKGRFIISRDNSKNTLYLQMNRLRVGDTATYYCATHPIAGYWGQGTLVTVSSASTKGPS
# B2: scFv78 (expressed in 293F cells, purified on anti-HA beads) (scFv)
# scFv: B1 scFv
# B3: Anti-TEM1 scFv78-minibody (scFv)
# chain: VQPVLTQPPSLSASPGASASLTCTLRSDINVGSYRISWYQQKPGSPPQYLLSYISDSDKQKGSGVPSRFSGSKDASANAGILLISGLQSEDEADYYCMIWHNSAGVFGGGTKLTVLGGGSSRSSSSGGGGSGGGGQVQLQESGGTLVQPGGSLRLSCEASGFTFSNYAMGWVRQTPGKGLEWLSAIRKSGTTTYYADSVKGRFIISRDNSKNTLYLQMNRLRVGDTATYYCATHPIAGYWGQGTLVTVSSASTKGPSVGGGSLIKDKTHTCPPCPAPEL
# B4: Anti-TEM1 scFv78-CH3 (protein)
# chain: VQPVLTQPPSLSASPGASASLTCTLRSDINVGSYRISWYQQKPGSPPQYLLSYISDSDKQKGSGVPSRFSGSKDASANAGILLISGLQSEDEADYYCMIWHNSAGVFGGGTKLTVLGGGSSRSSSSGGGGSGGGGQVQLQESGGTLVQPGGSLRLSCEASGFTFSNYAMGWVRQTPGKGLEWLSAIRKSGTTTYYADSVKGRFIISRDNSKNTLYLQMNRLRVGDTATYYCATHPIAGYWGQGTLVTVSSASTKGPSVGGGSLIKDKTHTCPPCPSKAKGQPREPQVYTLPPSREEMTKNQVSLTCLVKGFYPSDIAVEWESNGQPENNYKTTPPVLDSDGSFFLYSKLTVDKSRWQQGNVFSCSVMHEALHNHYTQKSLSLSPGK
# Tests used:
# [1] = molecular target: human TEM1 (endosialin, CD248) on cells (human) (UniProt Q9HCU0); experiment: live cell-based ELISA, binding to MS1-TEM1 minus binding to MS1 cells; positive control
# [2] = molecular target: T1, human TEM1 recombinant protein fused to GST (rhTEM1-GST) (human); experiment: ELISA on plate-coated rhTEM1-GST, KD=2[Ab']t-[Ab]t
# [3] = molecular target: T1, human TEM1 recombinant protein fused to GST (rhTEM1-GST) (human); experiment: ELISA on plate-coated rhTEM1-GST, KD=2[Ab']t-[Ab]t; remark: listed apart in the source
# [4] = molecular target: human TEM1 (endosialin, CD248) on cells (human) (UniProt Q9HCU0); experiment: live cell-based ELISA, binding to MS1-TEM1 minus binding to MS1 cells, HA-HRP detection
# [5] = molecular target: human TEM1 (endosialin, CD248) on cells (human) (UniProt Q9HCU0); experiment: live cell-based ELISA on MS1-TEM1 cells; reference scFv78
Molecule,Kd [4] [nM],fold lower KD than scFv78 [5] [fold],also measured
"MORAB004 antibody (Morphotek, Inc)",–,–,Kd [1]: 0.27 nM
B1,–,–,Kd [2]: 5.8 nM and 4.5 nM and 2.8 nM; Kd [3]: 4.3 nM
B2,2.08,–,–
B3,0.45,5,–
B4,0.34,5,–
